Experimental data as given in patent publication US20030068675, “Position dependent recognition of GNN nucleotide triplets by zinc fingers” (published 2003).
Numbering of substitutions follows the chain as printed.

What was measured:
Assay in all cases: EMSA
Settings in all cases: tags: MBP fusion
[1] = target: T1, ZFP SBS#829 (synthetic)
T1 chain: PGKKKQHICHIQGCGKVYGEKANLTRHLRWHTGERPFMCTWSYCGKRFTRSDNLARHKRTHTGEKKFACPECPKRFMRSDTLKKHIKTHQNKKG
Method in brief: (§1)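 Purified ZFP was titrated against labeled double-stranded target (1 nM or lower, at least 10-fold below expected Kd) carrying the natural binding site with flanks. Binding buffer was 10 mM Tris pH 7.5, 100 mM KCl, 1 mM MgCl2, 0.1 mM ZnCl2, 5 mM DTT, 10% glycerol, 0.02% BSA, with equilibration for at least 45 min. Bound and free target were separated on a 10% polyacrylamide gel.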

[2] = target: T2, ZFP SBS#828 (synthetic)
T2 chain: T1 chain with T81E, L82R, K84R
Method in brief: as §1

[3] = target: ZFP SBS#818 (synthetic)
Method in brief: as §1

[4] = target: ZFP SBS#825 (synthetic)
Method in brief: as §1

[5] = target: T3, ZFP SBS#671 (synthetic)
T3 chain: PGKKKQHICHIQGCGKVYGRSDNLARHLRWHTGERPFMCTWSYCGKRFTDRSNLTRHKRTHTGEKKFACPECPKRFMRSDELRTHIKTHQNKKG
Method in brief: as §1

[6] = target: T4, ZFP SBS#664 (synthetic)
T4 chain: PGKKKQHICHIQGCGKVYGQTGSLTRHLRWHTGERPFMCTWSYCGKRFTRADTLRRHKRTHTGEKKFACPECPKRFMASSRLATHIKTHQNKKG
Method in brief: as §1

[7] = target: T5, ZFP SBS#663 (synthetic)
T5 chain: T4 chain with A51S, T53E, R55Q, A78K, S79N, S80W, R81K, A83Q, T84A
Method in brief: as §1

[8] = target: ZFP SBS#662 (synthetic, UniProt P08047)
Chain of ZFP SBS#662 (P08047 other isoform, or with tags, fused parts or gaps): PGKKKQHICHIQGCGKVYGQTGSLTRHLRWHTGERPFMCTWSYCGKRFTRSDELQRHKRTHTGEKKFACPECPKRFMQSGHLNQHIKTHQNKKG
Method in brief: as §1

[9] = target: T6, ZFP SBS#894 (synthetic)
T6 chain: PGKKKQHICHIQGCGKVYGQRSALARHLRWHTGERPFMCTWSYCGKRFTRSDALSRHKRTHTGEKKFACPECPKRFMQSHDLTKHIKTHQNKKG
Method in brief: as §1

[10] = target: T7, ZFP SBS#887 (synthetic)
T7 chain: T6 chain with H80G, T83R, K84T
Method in brief: as §1

[11] = target: T8, ZFP SBS#891 (synthetic)
T8 chain: T6 chain with R21S, A23S, A25V, H80G, D81S, T83R, K84T
Method in brief: as §1

[12] = target: T9, ZFP SBS#888 (synthetic)
T9 chain: T6 chain with R21S, A23S, A25V
Method in brief: as §1

[13] = target: ZFP SBS#850 (synthetic)
Method in brief: as §1

[14] = target: ZFP SBS#801 (synthetic)
Chain of ZFP SBS#801 (synthetic) (chain, as listed by the source): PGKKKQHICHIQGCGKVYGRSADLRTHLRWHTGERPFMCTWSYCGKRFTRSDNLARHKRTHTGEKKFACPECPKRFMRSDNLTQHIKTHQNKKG
Method in brief: as §1

[15] = target: T10, ZFP SBS#848 (synthetic, UniProt P08047)
T10 chain: T1 chain with E20D, K21R, A22S, N23S, T81H, K83S, K84R
Method in brief: as §1

[16] = target: T11, ZFP SBS#836 (synthetic, UniProt P08047)
T11 chain: T1 chain with K21R, A22G, N23T, T25A, T81H, K83S, K84R
Method in brief: as §1

[17] = target: ZFP SBS#673 (synthetic)
Chain of ZFP SBS#673 (synthetic) (chain, as listed by the source): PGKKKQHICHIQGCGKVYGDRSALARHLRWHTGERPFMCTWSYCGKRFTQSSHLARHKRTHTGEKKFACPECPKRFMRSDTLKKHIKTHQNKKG
Method in brief: as §1

[18] = target: T12, ZFP SBS#670 (synthetic)
T12 chain: T6 chain with Q20R, R21S, S22D, A23N, S55A, Q78D, S79R, H80S, D81N, K84R
Method in brief: as §1

[19] = target: T13, ZFP SBS#842 (synthetic, UniProt P08047)
T13 chain: T1 chain with E20D, K21R, A22S, N23H, N53A, T81N, K83A, K84R
Method in brief: as §1

[20] = target: T14, ZFP SBS#817 (synthetic)
T14 chain: T1 chain with E20R, K21S, A22D, N23S, T81N, K83A, K84R
Method in brief: as §1

[21] = target: T15, ZFP SBS#884 (synthetic)
T15 chain: T1 chain with E20R, K21S, A22D, N23S, T81N, K83V, K84R
Method in brief: as §1

[22] = target: T16, ZFP SBS#897 (synthetic)
T16 chain: T1 chain with E20R, K21S, A22D, N23A, T25A, T81N, K83V, K84R
Method in brief: as §1

[23] = target: T17, ZFP SBS#668 (synthetic)
T17 chain: T1 chain with K21R, A22G, N23T, T25A, T81A, K83A, K84R
Method in brief: as §1

[24] = target: T18, ZFP SBS#669 (synthetic)
T18 chain: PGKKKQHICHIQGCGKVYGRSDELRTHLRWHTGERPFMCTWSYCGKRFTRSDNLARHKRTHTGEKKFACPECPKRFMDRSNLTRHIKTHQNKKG
Method in brief: as §1

[25] = target: T19, ZFP SBS#835 (synthetic)
T19 chain: T3 chain with S21A, N23T, A25R, D50Q, R51S, S52G, N53H, E81N, R83T
Method in brief: as §1

[26] = target: T20, ZFP SBS#847 (synthetic)
T20 chain: T3 chain with N23D, A25T, D50Q, R51S, S52G, N53H, E81N, R83T
Method in brief: as §1

[27] = target: ZFP SBS#804 (synthetic)
Method in brief: as §1

[28] = target: T21, ZFP SBS#803 (synthetic)
T21 chain: T6 chain with R21S, A23D, A25Q, A53E, S55Q, H80G, D81S, K84R
Method in brief: as §1

[29] = target: T22, ZFP SBS#674 (synthetic)
T22 chain: T1 chain with E20R, K21S, A22D, N23E, T25R, R26T, S51A, N53T, A55R
Method in brief: as §1

[30] = target: T23, ZFP SBS#672 (synthetic)
T23 chain: T3 chain with N23A
Method in brief: as §1

[31] = target: T24, ZFP SBS#667 (synthetic)
T24 chain: T1 chain with E20D, K21R, A22S, N53E, A55R, R56T, T81N, K83A, K84R
Method in brief: as §1

[32] = target: T25, ZFP SBS#738 (synthetic)
T25 chain: T1 chain with K21R, A22G, N23T, R26T, N53H, A55S, T81D, K83R, K84R
Method in brief: as §1

B1: GCGGAGGACC (dsDNA)
DNA 1: GCGGAGGACC
DNA 2: GGTCCTCCGC
- Kd [1]: 0.52 nM
- Kd [2]: 0.1 nM

B2: GAATGGGCAG (dsDNA)
DNA 1: GAATGGGCAG
DNA 2: CTGCCCATTC
- Kd [3]: 167 nM
- Kd [4]: 37.3 nM

B3: TCGGACGAGT (dsDNA)
DNA 1: TCGGACGAGT
DNA 2: ACTCGTCCGA
- Kd [5]: 64 nM

B4: AGAGCGGCAC (dsDNA)
DNA 1: AGAGCGGCAC
DNA 2: GTGCCGCTCT
- Kd [6]: 125 nM
- Kd [7]: 115 nM
- Kd [8]: 50 nM

B5: TCAGTGGTAT (dsDNA)
DNA 1: TCAGTGGTAT
DNA 2: ATACCACTGA
- Kd [9]: 6.15 nM
- Kd [10]: 23.8 nM
- Kd [11]: 18.5 nM
- Kd [12]: 14 nM

B6: CAGGCTGTGG (dsDNA)
DNA 1: CAGGCTGTGG
DNA 2: CCACAGCCTG
- Kd [13]: 17 nM

B7: AAGGAGTCGC (dsDNA)
DNA 1: AAGGAGTCGC
DNA 2: GCGACTCCTT
- Kd [14]: 0.85 nM

B8: GGGGAGGCCC (dsDNA)
DNA 1: GGGGAGGCCC
DNA 2: GGGCCTCCCC
- Kd [15]: 49.5 nM
- Kd [16]: 24.2 nM

B9: GCGGGTGTCT (dsDNA)
DNA 1: GCGGGTGTCT
DNA 2: AGACACCCGC
- Kd [17]: 48.3 nM

B10: GACGTGGAGG (dsDNA)
DNA 1: GACGTGGAGG
DNA 2: CCTCCACGTC
- Kd [18]: 0.57 nM

B11: GAGGTGGGCT (dsDNA)
DNA 1: GAGGTGGGCT
DNA 2: AGCCCACCTC
- Kd [19]: 5.4 nM

B12: GAGGAGGTGA (dsDNA)
DNA 1: GAGGAGGTGA
DNA 2: TCACCTCCTC
- Kd [20]: 0.31 nM
- Kd [21]: 0.15 nM
- Kd [22]: 0.07 nM

B13: GTGGAGGCCA (dsDNA)
DNA 1: GTGGAGGCCA
DNA 2: TGGCCTCCAC
- Kd [23]: 1.13 nM

B14: GACGAGTCGG (dsDNA)
DNA 1: GACGAGTCGG
DNA 2: CCGACTCGTC
- Kd [24]: 90 nM

B15: TAGGGAGCGT (dsDNA)
DNA 1: TAGGGAGCGT
DNA 2: ACGCTCCCTA
- Kd [25]: 150 nM
- Kd [26]: 150 nM

B16: GCAGCGGCTC (dsDNA)
DNA 1: GCAGCGGCTC
DNA 2: GAGCCGCTGC
- Kd [27]: 82.5 nM
- Kd [28]: 57.5 nM

B17: GCGGCGTCGG (dsDNA)
DNA 1: GCGGCGTCGG
DNA 2: CCGACGCCGC
- Kd [29]: 27.5 nM

B18: TCGGACGTGG (dsDNA)
DNA 1: TCGGACGTGG
DNA 2: CCACGTCCGA
- Kd [30]: 24 nM

B19: GAGTCGGACG (dsDNA)
DNA 1: GAGTCGGACG
DNA 2: CGTCCGACTC
- Kd [31]: 50 nM

B20: GCGGGGTCCG (dsDNA)
DNA 1: GCGGGGTCCG
DNA 2: CGGACCCCGC
- Kd [32]: 120 nM
